Consider one substance from PMC6108569.

For this test, the target named is OphAΔC18. Put plainly: crystal structure; proteins from the dimer fractions of gel filtration chromatography, incubated with SAM, SAH or sinefungin before crystallization; hanging drop vapor diffusion unless otherwise specified; homodimer in the crystal. In general terms: SEC sorts molecules by how far they enter the pores of the column.

As for OphAΔC18 (enzyme), the stoichiometry N (as a rule, the number of molecules, sites or subunits per partner or assembly) is 2.
